# Results published in US8357523B2, “Beta-glucosidase variant enzymes and related polynucleotides” (Codexis, Inc., priority 2009, dated 2013).
# Assay: High throughput cellobiose assay: fold improvement in cellobiase activity of CelA variants over a control enzyme (Tables 2A-2D, 3, 5, 6, 7)
# Format: biochemical
# Details: 3.3 g/l cellobiose, 65° C. and pH 5 (incubation overnight); relative to Control #5, Variant No. 366 (SEQ ID NO: 9)
row,Molecule,Fold Improvement over Control Variant
1,"397 (protein, truncated; signal peptide F-10T) SARITQEGAAPAAMLHPEKWPRPATQRLIDPAVEKRVDALLKQLSVEEKVGQVIQGDIGTITPEDLRKYPLGSILAGGDSGPNGDDRAPPKEWLDLADAFYRVSLEKRPGHTPIPVLFGIDAVHGHNNIGSATIFPHNIALGMTRDPELLRRIGEVTAEEVAATGIDWTFAPALSVVRDDRWGRTYEGFSEDPEIVASYSAAYVEGFQGKYGSKDFMAPGRIVACAKHFLADGGTDQGRDQGDARISEDELIRIHNAGYPPAIDAGVLTVMASFSSWQGIKHHGHKQLLTDVLKGQMGFNGFIVGDWNAHDQVPGCTKFNCPTSLIAGLDMYMAADSWKQLYENTLAQVKDGTIPMARLDDAVRRILRVKVLAGLFEKPAPKGRPGLPGLETLGSPEHRAVGREAVRKSLVLLKNDKGTLPLSPKARVLVAGDGADNIGKQSGGWTISWQGTGNRNDEFPGATSILGGIRDAVADAGGSVEFDVAGQYKTKPDVAIVVFGEEPYAEFRGDVETLEYQPDQKQDLTLLKKLKDQGIPVVAVFLSGRPMWVNPELNASDAFVAAWLPGTEGGGVADVLFTDKAGKVQHDFAGKLSYSWPRTAAQTTVNRGDADYNPLFAYGYGLTYKDKSKVGTLPEESGVPAEARQNAGIYFRAGALRLPGRFL",++ (++ = 1.1 to 2.0 fold improvement over control Variant No. 366)
2,"402 (protein, truncated; signal peptide F-10T, K-21R) SARITQEGAAPAPMLHPEKWPRPATQRLIDPAVEKRVDALLKQLSVEEKVGQVIQGDIGTITPEDLRKYPLGSILAGGDSGPNGDDRAPPKEWLDLADAFYRVSLEKRPGHTPIPVLFGIDAVHGHNNIGSATIFPHNIALGMTRDTELLRRIGEVTAEEMAATGIDWTFAPALSVPRDDRWGRTYEGFSEDPEIVASYSAAYVEGFQGKYGSKDFMAPGRAVACAKHFLADGGTDQGRDQGDARISEDELIRIHNAGYPPAIDAGVLTVMASFSSWQGIKHHGHKQLLTDVLKGQMGFNGFIVGDWNAHDQVPGCTKFNCPTSLIAGLDMYMAADSWKQLYENTLAQVKDGTIPMARLDDAVRRILRVKVLAGLFEKPAPKDRPGLPGLETLGSPEHRAVGREAVRKSLVLLKNDKGTLPLSPKARVLVAGDGADNIGKQSGGWTISWQGTGNRNDEFPGATSILGGIRDAVADAGGSVEFDVAGQYKTKPDVAIVVFGEEPYAEFRGDVETLEYQPDQKQDLSLLKKLKDQGIPVVAVFLSGRPMWVNPELNASDAFVAAWLPGTEGGGVADVLFTDKAGKVQYDFAGKLSYSWPRTAAQTTVNRGDADYNPLFAYGYGLTYKDKSKVGTLPEESGVPAEARQNAGIYFRAGALRLPGRFL",++ (++ = 1.1 to 2.0 fold improvement over control Variant No. 366)
3,"398 (protein, truncated; signal peptide F-10T) SARITQEGAAPAAMLHPEKWPRPATQRLIDPAVEKRVDALLKQLSVEEKVGQVIQGDIGTITPEDLRKYPLGSILAGGDSGPNGDDRAPPKEWLDLADAFYRVSLEKRPGHTPIPVLFGIDAVHGHNNIGSATIFPHNIALGMTRDPELLRRIGEVTAEEMAATGIDWTFAPALSVPRDDRWGRTYEGFSEDPEIVASYSAAIVEGFQGKYGTKDFMAPGRAVACAKHFLADGGTDQGRDQGDARISEDELIRIHNAGYPPAIDAGVLTVMASFSSWQGIKHHGHKQLLTDVLKGQMGFNGFIVGDWNAHDQVPGCTKFNCPTSLIAGLDMYMAADSWKQLYENTLAQVKDGTIPMARLDDAVRRILRVKVLAGLFEKPAPKDRPGLPGLETLGSPEHRAVGREAVRKSLVLLKNDKGTLPLSPKARVLVAGDGADNIGKQSGGWTISWQGTGNRNDEFPGATSILGGIRDAVADAGGSVEFDVAGQYKTKPDVAIVVFGEEPYAEFRGDVETLEYQPDQKQDLTLLKKLKDQGIPVVAVFLSGRPMWVNPELNASDAFVAAWLPGTEGGGVADVLFTDKAGKVQHDFAGKLSYSWPRTAAQTTVNRGDADYNPLFAYGYGLTYKDKSKVGTLPEESGVPAEARQNAGIYFRAGALRLPGRFL",++ (++ = 1.1 to 2.0 fold improvement over control Variant No. 366)
4,"403 (protein, truncated; signal peptide F-10T) SAAITQEGAAPAPMLHPEKWPRPATQRLIDPAVEKRVDALLKQLSVEEKVGQVIQGDIGTITPEDLRKYPLGSILAGGDSGPNGDDRAPPKEWLDLADAFYRVSLEKRDGHTPIPVLFGIDAVHGHNNIGSATIFPHNIALGMTRDPELLRRIGEVTAEEMAATGIDWTFAPALSVPRDDRWGRTYEGFSEDPEIVASYSAAIVEGFQGKYGSKDFMAPGRAVACAKHFLADGGTDQGRDQGDARISEDELIRIHNAGYPPAIDAGVLTVMASFSSWQGIKHHGHKQLLTDVLKGQMGFNGFIVGDWNAHDQVPGCTKFNCPTSLIAGLDMYMAADSWKQLYENTLAQVKDGTIPMARLDDAVRRILRVKVLAGLFEKPAPKDRPGLPGLETLGSPEHRAVGREAVRKSLVLLKNDKGTLPLSPKARVLVAGDGADNIGKQSGGWTISWQGTGNRNDEFPGATSILGGIRDAVADAGGSVEFDVAGQYKTKPDVAIVVFGEEPYAEFRGDVETLEYQPDQKQDLTLLKKLKDQGIPVVAVFLSGRPMWVNPELNASDAFVAAWLPGTEGGGVADVLFTDKAGKVQHDFAGKLSYSWPRTAAQTTVNRGDADYNPLFAYGYGLTYKDKSKVGTLPEESGVPAEARQNAGIYFRAGALRLPGRFL",++ (++ = 1.1 to 2.0 fold improvement over control Variant No. 366)
5,"404 (protein, truncated; signal peptide F-10T) SAAITQEGAAPAPMLHPEKWPRPATQRLIDPAVEKRVDALLKQLSVEEKVGQVIQGDIGTITPEDLRKYPLGSILAGGDSGPNGDDRAPPKEWLDLADAFYRVSLEKRDGHTPIPVLFGIDAVHGHNKIGSATIFPHNIALGMTRDPELLRRIGEVTAEEMAATGIDWTFAPALSVPRDDRWGRTYEGFSEDPEIVASYSAAIVEGFQGKYGSKDFMAPGRAVACAKHFLADGGTDQGRDQGDARISEDELIRIHNAGYPPAIDAGVLTVMASFSSWQGIKHHGHKQLLTDVLKGQMGFNGFIVGDWNAHDQVPGCTKFNCPTSLIAGLDMYMAADSWKQLYENTLAQVKDGTIPMARLDDAVRRILRVKVLAGLFEKPAPKDRPGLPGLETLGSPEHRAVGREAVRKSLVLLKNDKGTLPLSPKARVLVAGDGADNIGKQSGGWTISWQGTGNRNDEFPGATSILGGIRDAVADAGGSVEFDVAGQYKTKPDVAIVVFGEEPYAEFRGDVETLEYQPDQKQDLTLLKKLKDQGIPVVAVFLSGRPMWVNPELNASDAFVAAWLPGTEGGGVADVLFTDKAGKVQHDFAGKLSYSWARTAAQTTVNRGDADYNPLFAYGYGLTYKDKSKVGTLPEESGVPAEARQNAGIYFRAGALRLPGRFL",++ (++ = 1.1 to 2.0 fold improvement over control Variant No. 366)
6,"400 (protein, truncated; signal peptide F-10T) SAAITQEGAAPAAMLHPEKWPRPATQRLIDPAVEKRVDALLKQLSVEEKVGQVIQGDIGTITPEDLRKYPLGSILAGGDSGPNGDDRAPPKEWLDLADAFYRVSLEKRPGHTPIPVLFGIDAVHGHNNIGSATIFPHNIALGMTRDPELLRRIGEVTAEEMAATGIDWTFAPALSVVRDDRWGRTYEGFSEDPEIVASYSAAYVEGFQGKYGSKDFMAPGRAVACAKHFLADGGTDQGRDQGDARISEDELIRIHNAGYPPAIDAGVLTVMASFSSWQGIKHHGHKQLLTDVLKGQMGFNGFIVGDWNAHDQVPGCTKFNCPTSLIAGLDMYMAADSWKQLYENTLAQVKDGTIPTARLDDAVRRILRVKVLAGLFEKPAPKDRPGLPGLETLGSPEHRAVGREAVRKSLVLLKNDKGTLPLSPKARVLVAGDGADNIGKQSGGWTISWQGTGNRNDEFPGATSILGGIRDAVADAGGSVEFDVAGQYKTKPDVAIVVFGEEPYAEFRGDVETLEYQPDQKQDLTLLKKLKDQGIPVVAVFLSGRPMWVNPELNASDAFVAAWLPGTEGGGVADVLFTDKAGKVQHDFAGKLSYSWPRTAAQTTVNRGDADYNPLFAYGYGLTYKDKSKVGTLPEESGVPAEARQKAGIYFRAGALRLPGRFL",++ (++ = 1.1 to 2.0 fold improvement over control Variant No. 366)
7,"399 (protein, truncated; signal peptide F-10T) SARITQEGAAPAAMLHPEKWPRPATQRLIDPAVEKRVDALLKQLSVEEKVGQVIQGDIGTITPEDLRKYPLGSILAGGDSGPNGDDRAPPKEWLDLADAFYRVSLEKRDGHTPIPVLFGIDAVHGHNNIGSATIFPHNIALGMTRDPELLRRIGEVTAEEMAATGIDWTFAPALSVPRDDRWGRTYEGFSEDPEIVASYSAAIVEGFQGKYGSKDFMAPGRAVACAKHFLADGGTDQGRDQGDARISEDELIRIHNAGYPPAIDAGVLTVMASFSSWQGIKHHGHKQLLTDVLKGQMGFNGFIVGDWNAHDQVPGCTKFNCPTSLIAGLDMYMAADSWKQLYENTLAQVKDGTIPTARLDDAVRRILRVKVLAGLFEKPAPKDRPGLPGLETLGSPEHRAVGREAVRKSLVLLKNDKGTLPLSPKARVLVAGDGADNIGKQSGGWTISWQGTGNRNDEFPGATSILGGIRDAVADAGGSVEFDVAGQYKTKPDVAIVVFGEEPYAEFRGDVETLEYQPDQKQDLTLLKKLKDQGIPVVAVFLSGRPMWVNPELNASDAFVAAWLPGTEGGGVADVLFTDKAGKVQHDFAGKLSYSWPRTAAQTTVNRGDADYNPLFAYGYGLTYKDKSKVGTLPEESGVPAEARQNAGIYFRAGALRLPGRFL",++ (++ = 1.1 to 2.0 fold improvement over control Variant No. 366)
8,"401 (protein, truncated; signal peptide F-10T) SAAITQEGAAPAAMLHPEKWPRPAAQRLIDPAVEKRVDALLKQLSVEEKVGQVIQGDIGTITPEDLRKYPLGSILAGGDSGPNGDDRAPPKEWLDLADAFYRVSLEKRPGHTPIPVLFGIDAVHGHNHIGSATIFPHNIALGMTRDPELLRRIGEVTAEEMAATGIDWTFAPALSVPRDDRWGRTYEGFSEDPEIVASYSAAYVEGFQGKYGSKDFMAPGRAVACAKHFLADGGTDQGRDQGDARISEDELIRIHNAGYPPAIDAGVLTVMASFSSWQGIKHHGHKQLLTDVLKGQMGFNGFIVGDWNAHDQVPGCTKFNCPTSLIAGLDMYMAADSWKQLYENTLAQVKDGTIPMARLDDAVRRILRVKVLAGLFEKPAPKDRPGLPGLETLGSPEHRAVGREAVRKSLVLLKNDKGTLPLSPKARVLVAGDGADNIGKQSGGWTISWQGTGNRNDEFPGATSILGGIRDAVADAGGSVEFDVAGQYKTKPDVAIVVFGEEPYAEFRGDVETLEYQPDQKQDLSLLKKLKDQGIPVVAVFLSGRPMWVNPELNASDAFVAAWLPGTEGGGVADVLFTDKAGKVQHDFAGKLSYSWPRTAAQTTVNRGDADYNPLFAYGYGLTYKDKSKVGTLPEESGVPAEARQNAGIYFRAGALRLPGRFL",++ (++ = 1.1 to 2.0 fold improvement over control Variant No. 366)
